Among the data in publication PMC4861070 (ACS chemical biology, 2016) are Kd values, retold here.

In assay [1] the target is H3K9me3S10ph peptide (Homo sapiens) (UniProt P68431). The note with it: cited from earlier work.
For assay [2], the target named is H3K9me3 peptide (Homo sapiens) (UniProt P68431). The note with it: cited from earlier work.
For assay [3], the target named is Tudor domain of human PHF1 (aa 14–87) (human, UniProt O43189 14-87). As to the kind of experiment: NMR titration.
Assay [4] concerns the target T1, BRPF1 PWWP domain (aa 1064–1214) (UniProt P55201 1064-1214).
T1 sequence (looked up): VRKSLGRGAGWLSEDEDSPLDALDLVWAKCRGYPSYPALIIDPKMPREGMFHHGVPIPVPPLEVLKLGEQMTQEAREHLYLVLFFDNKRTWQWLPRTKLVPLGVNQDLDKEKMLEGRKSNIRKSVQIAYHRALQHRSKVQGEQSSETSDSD
The experiment in a line: NMR titration.

Square brackets hold non-standard residues; d marks the D form. Ends that are not written are not given here. pY = N[C@@H](Cc1ccc(OP(=O)(O)O)cc1)C(=O)O; Lys(Me3) = C[N+](C)(C)CCCC[C@H](N)C(=O)O; pS = N[C@@H](COP(=O)(O)O)C(=O)O

Chain of Tudor domain of human PHF1 (aa 14–87) (O43189 14-87): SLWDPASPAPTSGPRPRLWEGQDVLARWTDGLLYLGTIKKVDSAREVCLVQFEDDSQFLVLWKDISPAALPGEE

In general, Kd refers to the free concentration of one partner at which half of the binding sites on the other are occupied at equilibrium, for simple one-to-one binding. Take ATRX ADD (from UniProt P46100): the figures for the Kd in assay [1] and in assay [2] were 0.19 µM and 0.11 µM, respectively.

KSAPSTGGV[Lys(Me3)]KPHR[pY]RPGT (peptide, UniProt P84243 28-46, looked up) [histone H3.3K36me3Y41ph peptide (residues 27–45 of H3.3)]: the Kd in assay [3] turned out to be 480 µM; in assay [4], 1800 µM.

As to KSAPSTGGV[Lys(Me3)]KPHRYRPGT (peptide, UniProt P84243 28-46, looked up) [histone H3.3K36me3 peptide (residues 27–45 of H3.3)], the Kd is 37 µM in assay [3] and 3900 µM in assay [4].

For KSAP[pS]TGGV[Lys(Me3)]KPHRYRPGT (peptide, UniProt P84243 28-46, looked up) [histone H3.3S31phK36me3 peptide (residues 27–45 of H3.3)], the results for the Kd in assay [3] and in assay [4] were 260 µM and 2300 µM, respectively.
